In patent publication US20260035452A1 (THE UNIVERSITY OF BIRMINGHAM, priority 2022, published 2026):

Columns and labels:
[1] = tested on: Human dermal blood endothelial cells (HDBEC); assay: HDBEC stimulation (flow cytometry, IL-6 Elisa); type: cell-based; conditions: 100 ng/ml in combination with TNF-α (100 U/ml), 24 h
Procedure: FIG. 10: Human dermal blood endothelial cells (HDBEC) were treated with: IL-17 vehicle (Ctrl), IL-17 or FM-0410 (100 ng/ml), alone or in combination with TNF-α (100 U/ml) for 24 h. Cells were washed, gated in their totality and singlet before the identification of IL-17Rs (RA and RC) (A, B), ICAM (C) and VCAM (D) expression. Histogram values (expressed as MIF) indicate the total positive cells (A-D). In (E) are shown phase-contrast micrographs of confluent monolayers of untreated or treated (as reported before) HDBEC. Total adhesion (expressed as INT/mm^2, F) and % of transmigration (G) are calculated with Image Pro programme (DataCell, Finchampstead). Inflammatory supernatants from all experimental conditions were assayed by Elisa for IL-6 (H) expressed in pg/ml. Data were presented as means±S.D. of n=3 healthy donors. Statistical analysis was conducted by one-way ANOVA followed by Bonferroni's for multiple comparisons. ^#P≤0.05, ^##P≤0.01, ^###P≤0.001, ^####P≤0.0001 vs Ctrl group; *P≤0.05 vs TNF-α+IL-17 group; ^∘P≤0.05, ^∘∘∘P≤0.001, ^∘∘∘∘P≤0.0001 vs TNF-α group.
Human dermal blood endothelial cells (HDBEC): Primary human dermal blood endothelial cells (HDBECs) were purchased from PromoCell and cultured in the manufacturer's recommended endothelial cell growth medium MV (PromoCell, Heidelberg, Germany). HDBECs were seeded onto 12-well tissue culture plates after 4 passages at a seeding density yielding confluent monolayers. HDBEC monolayers were washed in endothelial cell growth medium MV warmed to 37° C. and stimulated with IL-17 or FM-0410 (100 ng/ml) alone or in a combination with TNF-α (100 U/ml) for 24 h at 37° C. Cells were stimulated for 24 h, before staining with IL-17Rs (RA or RC) or ICAM/VCAM adhesion receptors using a Flow cytometry assay. Supernatants were collected and measured to evaluate IL-6 or TNF-α levels.
Flow Cytometry: HDBEC, collected after 24 h of treatment, were washed with PBS without Ca^2+ and Mg^2+ containing 25 mM lactose for 20 min at room temperature with occasional mixing. […] Protein expression was analysed by flow cytometry on a Dako CyAn (Beckman Coulter, High Wycombe, U.K.), and data were analysed using MRFIow and FlowJo software operation. The unspecific binding of antibodies was quantified by using corresponding isotype controls.
Elisa assay: The levels of IL-6 at 24 h were measured using commercially available enzyme-linked immunosorbent assay kits (ELISA kit, R&D System, Milan, Italy) according to the manufacturer's instructions. […] The addition of 100 μl of the substrate and stop solution represented the last steps before the reading of absorbance (measured at 450 nm) on a microplate reader. Antigen levels in the samples were determined using a standard curve and expressed as pg/ml.

dorsal air pouch of mice = conditions: single administration 1 μg/pouch into 6-day old air pouch; previous studies; cited from earlier work

B1: IL-17: recombinant mouse IL-17 purchased from R&D System; full-length cytokine used as comparator and stimulus (protein, UniProt Q62386 26-158, looked up)
Interleukin-17A: AAIIPQSSACPNTEAKDFLQNVKVNLKVFNSLGAKVSSRRPSDYLNRSTSPWTLHRNEDPDRYPSVIWEAQCRHQRCVNAEGKLDHHMNSVLIQQEILVLKREPESCPFTFRVEKMLVGVGCTCVASIVRQAA
[1]
  ICAM expression: upregulation
  IL-17RA receptor expression: No effects
  IL-17RC receptor expression: No effects
  VCAM expression: upregulation
Dorsal air pouch of mice
  time of peak of leukocyte infiltration: 24 h
